Results from patent US20110195021A1 (IMMUNOGEN, published 2011).
Substitutions are numbered along the chain they refer to. Like-named read-outs stand apart in the source and are kept apart here.

B1: rituximab (antibody, V domains shown)
VH: QVQLQQPGAELVKPGASVKMSCKASGYTFTSYNMHWVKQTPGRGLEWIGAIYPGNGDTSYNQKFKGKATLTADKSSSTAYMQLSSLTSEDSAVYYCARSTYYGGDWYFNVWGAGTTVTVSA
VL: QIVLSQSPAILSASPGEKVTMTCRASSSVSYIHWFQQKPGSSPKPWIYATSNLASGVPVRFSGSGSGTSYSLTISRVEAEDAATYYCQQWTSNPPTFGGGTKLEIK
B2: muCD20-6 (antibody, mouse IgG1, kappa, V domains shown)
VH: QIQLVQSGPELKKPGETVKISCKASGYKFTNVGMNWVKQVPGKGLKWMGWINTYTGEPAYADDFKGRFVFSLETSASAAFLQINNLKNEDTATYFCARGAYYRYDLGMDYWGQGTSVTVSS
VL: DIVLTQSPASLAVSLGQRAIISCRASESVDNFGNSFMHWYQQKPGQPPTLLIYRASNLESGIPARFSGSGSRTDFTLTVNPVEADDIATYYCQQSYEDPFTFGAGTKLELKR
notes: Murine monoclonal antibody purified from hybridoma (ATCC PTA-10486); also called murine CD20-6
B3: muCD20-7 (antibody, mouse IgG1, kappa, V domains shown)
VH: B2 VH with I2L, K28S, V32Y, V40A, A59S, V69A, A78T, F80Y, N84S
VL: B2 VL with I20T, E27G, N31S, T49K, I62V, S69G, V79I, Y91F, K111M
notes: Murine monoclonal antibody purified from hybridoma (ATCC PTA-10487); also called murine CD20-7
B4: chCD20-7 (antibody, V domains shown)
VH: B2 VH with I2L, K28S, V32Y, V40A, A59S, V69A, A78T, F80Y, N84S
VL: B2 VL with I20T, E27G, N31S, T49K, I62V, S69G, V79I, Y91F, K111M
notes: Chimeric antibody: CD20-7 variable regions cloned into pchCD20-7HCN and pchCD20-7LCZ and expressed in HEK-293T cells; also called chimeric CD20-7

Key:
human CD20 (human) [1] = target: human CD20 (human) (UniProt P11836); test: flow cytometry on SU-DHL-4 cells
human CD20 (human) [2] = target: human CD20 (human) (UniProt P11836); test: cell-based or functional assay
human CD20 [3] = target: T1, human CD20 (human, UniProt P11836 1-297); test: flow cytometry on 300-19 cells transfected with wild type human CD20
T1 construct: whole, on cells; also called wild type CD20; MS4A1
T1 sequence (looked up): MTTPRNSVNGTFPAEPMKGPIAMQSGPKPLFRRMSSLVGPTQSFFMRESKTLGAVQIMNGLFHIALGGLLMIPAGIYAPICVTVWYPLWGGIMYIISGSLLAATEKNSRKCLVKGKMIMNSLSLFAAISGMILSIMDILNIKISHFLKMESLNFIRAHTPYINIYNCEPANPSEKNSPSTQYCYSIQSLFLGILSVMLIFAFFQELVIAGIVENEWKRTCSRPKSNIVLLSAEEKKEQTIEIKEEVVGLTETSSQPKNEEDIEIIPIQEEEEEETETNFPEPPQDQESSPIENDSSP

human CD20 [4] = target: T1, human CD20; test: as above; remark: listed apart in the source
CD20-A170S P172S variant = target: T2, CD20-A170S P172S variant (human, UniProt P11836 1-297); test: flow cytometry on 300-19 cells transfected with human CD20 A170S P172S
T2 construct: Stably expressed on 300-19 cells; also called CD20-AP; CD20AP
T2 chain: T1 sequence (looked up) with A170S, P172S

human CD20 [5] = target: T1, human CD20; test: flow cytometry on BJAB cells, apparent dissociation constant from the MFI dose-response curve; muCD20-6 on BJAB cells
Description: (§1) Binding specificity was tested by flow cytometry using purified antibodies. […] Then, the cells were pelleted, washed, and incubated for 1 h with 100 μL of FITC-conjugated goat anti-mouse IgG-antibody (such as is obtainable from, for example Jackson Laboratory, 6 μg/mL in FACS buffer). The cells were pelleted again, washed with FACS buffer and resuspended in 200 μL of PBS containing 1% formaldehyde. Samples were acquired using a FACSCalibur flow cytometer with the HTS multiwell sampler or a FACS array flow cytometer and analyzed using CellQuest Pro (all from BD Biosciences, San Diego, US).
(§2) Data analysis was performed using CellQuest Pro (BD Biosciences, San Diego, US) and for each sample the mean fluorescence intensity for FL1 (MFI) was exported and plotted against the antibody concentration in a semi-log plot.

CD20 N163D = target: T3, CD20 N163D (human, UniProt P11836 1-297); test: flow cytometry on 300-19 cells transfected with human CD20 N163D
T3 construct: whole, on cells; Stably expressed on 300-19 cells
T3 sequence (looked up): T1 sequence (looked up) with N163D

human CD20 [6] = target: T1, human CD20; test: flow cytometry on 300-19 cells transfected with wild type human CD20; remark: listed apart in the source
human CD20 [7] = target: T1, human CD20; test: flow cytometry on BJAB cells, apparent Kd
Description: as §1, §2
The value for the apparent dissociation constant (Kd) of each antibody was calculated using GraphPad Prism v4 (GraphPad software, San Diego, Calif.).

human CD20 [8] = target: T1, human CD20; test: flow cytometry on BJAB cells, apparent dissociation constant from the MFI dose-response curve; muCD20-7 on BJAB cells
Description: as §1, §2

CD20 N163D N166D = target: T4, CD20 N163D N166D (human, UniProt P11836 1-297); test: flow cytometry on 300-19 cells transfected with human CD20 N163D N166D
T4 construct: whole, on cells; Stably expressed on 300-19 cells; also called CD20-NNDD
T4 sequence (looked up): T1 sequence (looked up) with N163D, N166D

| Molecule | binding result (CD20-A170S P172S variant) | binding result (CD20 N163D) | EC50 (read off the curve) (human CD20 [6]) [nM] | Kd (human CD20 [7]) [nM] | also measured |
| --- | --- | --- | --- | --- | --- |
| rituximab-SMCC-[^3H]DM1 (antibody) |  |  |  |  | EC50 (read off the curve) (human CD20 (human) [1]): 1 nM; IC50, cell-based viability assay, CD20-positive SU-DHL-4 cells (human CD20 (human) [2]): 0.24 nM |
| B1 (antibody) |  |  |  |  | EC50 (read off the curve) (human CD20 [3]): 0.4 nM |
| B1 |  |  |  |  | EC50 (read off the curve) (human CD20 [4]): ~0.5 nM |
| B2 | binds | no binding (tested: 10^-7.5 M (about 3x10^-8 M)) | ~0.8 |  | Kd (human CD20 [5]): 0.4 nM |
| B3 | binds | no binding (tested: 10^-7.5 M (about 3x10^-8 M)) | ~0.5 | 0.4 | Kd (human CD20 [8]): 0.3 nM; binding result (CD20 N163D N166D): no binding (tested: 10^-7.5 M (about 3x10^-8 M)) |
| B4 |  |  |  | 0.5 |  |
